Laboratory results from the DeepSol protein solubility set.

Assay: soluble on expression in E. coli; label from the status in PepcDB or PDB records

Soluble on expression in E. coli, not soluble:
MGSDKIHHHHHHMNKEIPKFLENTQIEKFICNELDYKKEILRELKELLENFNTINVKNSINSKYIALLMLSIFNAFHFKKELNKNLVNSLDAIIFAIKSIGTDESFIVLFKAFLHANVEVSSNEDAPGEIIIKLLGNIKSPIEFNIAAKNQNKLKKITAKHAGFKKALTSNYMPKDYKNSVYEFIKILIPIGRIVKIIDKKQIEIKGTRTKKFSTADHFF
MGSDKIHHHHHHMNKELASKFLSSIKHEREQDIQTTSRLLTTLSIQQLVQNGLAINNIHLENIRSGLIGKLYMELGPNLAVNDKIQRGDIKVGDIVLVRPAKTKVNTKTKPKVKKVSEDSNGEQAECSGVVYKMSDTQITIALEESQDVIATTFYSYSKLYILKTTNVVTYNRMESTMRKLSEISSPIQDKIIQYLVNERPFIPNTNSFQNIKSFLNPNLNDSQKTAINFAINNDLTIIHGPPGTGKTFTLIELIQQLLIKNPEERILICGPSNISVDTILERLTPLVPNNLLLRIGHPARLLDSNKRHSLDILSKKNTIVKDISQEIDKLIQENKKLKNYKQRKENWNEIKLLRKDLKKREFKTIKDLIIQSRIVVTTLHGSSSRELCSLYRDDPNFQLFDTLIIDEVSQAMEPQCWIPLIAHQNQFHKLVLAGDNKQLPPTIKTEDDKNVIHNLETTLFDRIIKIFPKRDMVKFLNVQYRMNQKIMEFPSHSMYNGKLLADATVANRLLIDLPTVDATPSEDDDDTKIPLIWYDTQGDEFQETADEATILGSKYNEGEIAIVKEHIENLRSFNVPENSIGVISPYNAQVSHLKKLIHDELKLTDIEISTVDGFQGREKDVIILSLVRSNEKFEVGFLKEERRLNVAMTRPRRQLVVVGNIEVLQRCGNKYLKSWSEWCEENADVRYPNIDDYL
MGSDKIHHHHHHMNKNEIANLKMQGFILQNDGKHFALRIKTDAGCMDSEKIDKLSEISKKYGRNYISFTVRLCVEIPWINYEDIPKIKEELKNLSLISGGTGNTVRPLVACKGTVCTHGLIDSQKICNELDSLFFGKKLPHKFKIGISGCPNNCAKAQLNDIGIIGQRIPKINEENCNGCTLCLKSCSVDAITIVDKKAVIDYEKCVNCGKCGKSCKRKCISLKDGVLISVGGKFGKKYKIGENIGIYDAPNLEKIVSEIMDYFKENADSHERFGDTIDRTGISSLKEKLKDY
MGSDKIHHHHHHMNLKHIEAFRAVMVSGSMTAAAKALFTSQPNVSRLIAQLERDTGLQLFQRSGVRLIPTSEGEAFFREVERAFVGLQGLANAAAQIRNLGSGRLRIAAMPSAGMTLVPHAIKRFVELFPDVTVSLHVNTSGTVNHWTASQFCDLGVAVYVSEASDCEVEQLSDLAAVCVMPAAHRLAAKRSIKPEDLEGESFISLCHGDGTRALMDEVFQRAGVQRVMAIEAQYTAMCCEMVRHGMGVTLAHPIVARDFAGPDIAIRPFLPATRFQTYLLFPPHRPRERLASAFVEVLRELHDELLAEVVVPTPSVGRRRVVRSASKG
MGSDKIHHHHHHMNMPNSFSNSHIYLGNVMHRRFSPKKHSFDYRLFMLALDVADVEKAQGGFGVFGFSWYRPLRFVETDYLKESIKDNSKDNLAGDPRSLSHRIKNKVHELAGYADIKRIVMLVQVRCFGIYFSPANFYFCYDQDDKCTQMLAEVSNTPWNERHYYLVDLLKEEGDKTTKKMFQVSPFMDLAMTYFWQVTPPCNGNDKLLVKIENKRVNDESGTVSKLFDASLVMRRKPFTKASLLRIWGQLPVMTMKVVVTIYWQALKLFIKRVPFIGYQKPS
MGSDKIHHHHHHMNNESLTLDAYPVEVEFPDIRPYAEGNCGIPYVFTFDSGVAGPHVMVNALTHGNEVCGAITVKGLLDAGVKPRRGRVTFAFANVDAYACFDPARPDASRFVDQDFNRVWTSAVLDDASRDSSELRRARAMRPVIDTVDLLLDLHSMHEKSRPLIVSGPLDKGIALARALGAPADVIVDEGHPEGRRMRDYADFGDPASARNALLIECGQHWETSAVTVARDSAARFLLNAGVIDAQDVPTGWLQPLAATQRVVRVTEPVVANSMDFRFAGPYTGLETFMEAGTVIGWRDGEPVVTPYPNCVLVMPSLRQLRPGVTVVRLGQLEA
MGSDKIHHHHHHMNNTPANRLQPKHFTLIKAIGDLGQLSLAAGQVSMTQPAASRMLAEIERIVGAAVFLRTPKGMEATEVGAALVRRSEILLQEMREAMREVDAIKRGASGTVSVGAVTGGALGYIVPAISTLKAEARTADIYVDVAPSGTLISNLVSGQFDFVLGRIPVGVDARQFHIRHARTEEVDLIVHQSHPLANSTDLRMTDLLHFPWVMQGPGAPVRQAVENAFIDAGTTLPVDVVNTTSLLVMIAMIAASNAITPLSREVSDLLCRQTTGAGLCRLKIRRPIIVLPYHLISMKNRHMSTLAARLQDLVLQEFITR
MGSDKIHHHHHHMNQQPEQITALYCRLSRDDELQGDSNSIVNQKSILSKYAEEHRLLNTRFFIDDGVSGTTFDRPGLNEMLALIDEEKVSTVIVKDMSRLGRDYLKVGLLTEIQLPEKGVRFIAINDGVDSNQGVSEFIAFRNVINEWYAKDTSKKIKAVFTAKGQSGKPLSTFPPYGYIKDPEDKNRWIVDEAAAEVVREIFRLCMEGNGPTKIARILSERRVLIPSAYAKSNGRSAPADVPADRCKWCDSTVAHILERKEYLGHTVNFKTYKESFRNKKQRKNPKENQMVFENTHQPIIEQDVWDTVQQLR
MGSDKIHHHHHHMNRGMKNYLSQTNYRDAMKAADIMNSNVIYATLPSTRDKVLELFKKYEISAVPVLKNSELVGIVTRKDILRKIEENQLALLMTPNPTTVDADADVKEVVKILTSTPFRRLPVVKDGKLVGIITVRDIIKKIAEMNIEKPVKSYITPYIVCVWEETPLNVVGEIMRLSNSEFVGILNDNDELVGVIDEKIMLTETLIEDFIEQTAYSSSSDTDDSWSWDSVRDYTVKYFEVSVVKLPKEPVKNFMKKPEFVYPQTSVSKCAKRMVRSDLDYIPVLDSENRLIGTVRDKDLIRVLLEV
MGSDKIHHHHHHMNRIGIIGAMQIEIDLLLEKLAIQEKQTIAGMPFYVGEFMGMEVIVTRCGVGKVNAAACTQTLIHKFDVDAIINTGVAGGLHPDVKVGDVVISTNVTHHDVSKTQMKNLFPFQEEFHASKKLMELARTACNSSSLHIGVHEGRIVSGECFVEDSKLKAKLIDEYAAHCTEMEGAAIGHVAYINEVPFLVIRCISDSADDEAQISYDDFAKTAANYCSEIIVEMLKNISSKTYSSKGGNEMLQAFIFDMDGTLFQTDKILELSLDDTFDHLRSLQLWDTVTPIEKYREIMGVPLPKVWETLLPNHSIEVREQTDAYFLERLIENIKSGKGALYPNVKEIFTYIKENNCSIYIASNGLTEYLRAIVSYYALDQWVTETFSIEQINSLNKSDLVKSILNKYDIKEAAIVGDRLSDINAAKDNGLFAIGCNFDFAQEDELVQADIVIDDLMELKGILPAVQR
MGSDKIHHHHHHMNRKVAIVTGTNSNLGLNIVFRLIETEDTNVRLTIVVTSRTLPRVQEVINQIKDFYNKSGRVEDLEIDFDYLLVDFTNMVSVLNAYYDINKKYRAINYLFVNAAQGIFDGIDWIGAVKEVFTNPLEAVTNPTYKIQLVGVKSKDDMGLIFQANVFGPYYFISKILPQLTRGKAYIVWISSIMSDPKYLSLNDIELLKTNASYEGSKRLVDLLHLATYKDLKKLGINQYVVQPGIFTSHSFSEYLNFFTYFGMLCLFYLARLLGSPWHNIDGYKAANAPVYVTRLANPNFEKQDVKYGSATSRDGMPYIKTQEIDPTGMSDVFAYIQKKKLEWDEKLKDQIVETRTPI
MGSDKIHHHHHHMNRTMSSINVLSLPVFNRDASGYDALRRGLIPCFDAFYGTALDLIDDWRDAEKLRVLDLGAGTGLFTAMLLTRHPDAQIHLIDASEKMLEQARKRFDGNPAITYAVADMANTELGGPWDLIISALAIHHLEDIGKKHLFGEIRGALSEGGLFVNVEQVLGHDPEVEARYARTWLQQVRRLGVAEVEIAKAHERMSHDRCSPLENQLQWMRDTGFCEIDCSFKAWRFAVLSGRR
MGSDKIHHHHHHMNTFPAVLIGGPPHSGKSVLTYLLTQYLRQRGIEHYVLRACPDGEGDWSQESTPDLVRLLRQKGAFDRTFVDRVCRDIEQRHLPLLVDVGGRPTLDQERIIQRCTHAIVLSATPQGMDEWRNRVEQYGLIIVAELHSELHGSDQIEVEKPVLRGVISGLERNAPTGGIVVEALANRLARLMHYDQAELVQQHLQRAPAELVVDLDRLARQMWVEATQRRWIPPDLPQILDSIPAKTPLAIYGRGPNWLYAALAGHTAPAPFSLFDPRLGWAQAQSLRRVPQPVADVIRWQTREEQDYTLLKAHLLEPYLDYDDLSALTVPRLDPQRGVVVSGKLPFWLLTSLIVTYHEHPWLAVIQPQLNPNSVIIFSRCEDYRPGNSIQVVLD
MGSDKIHHHHHHMNTLQRRKTHQVRIDHITVGSEAPVVIQSMTNTDTADAKATALQIKELSDAGSEMVRITVNSPEAASKVAEIRRRLDDMGYATPLIGDFHFNGERLLAEFPECGKALSKYRINPGNVGKGVKGDEKFAFMIRTAAENDKAVRIGVNWGSLDQSLAKRMMDANLASSAPKPPEEVTKEALIVSALESAEKAVLLGLPEDKIILSCKVSAVQDLIQVYRELGSRCAYPLHLGLTEAGMGSKGIVASTAALSVLLQEGIGDTIRISLTPEPGSPRTQEVVVGQEILQTMGLRSFTPMVTACPGCGRTTSTVFQELAQDVQNYLRQKMSIWRTLYPGVESLNVAVMGCVVNGPGESKLADIGISLPGTGETPVAPVYVDGERKVTLKGDNIATEFLAIVEEYVKTNYGENGSKRNQNKIIPIQSL
MGSDKIHHHHHHMNTLTDVEWNAFALPANLADGHAYHDMHVAFMEIMKNLERIWSEADKITPPRMALDFKNSFSRLIKSPSLMPHTHYKICPSASNSIDLIAAFLHGKNIRTVLVEPTFDNLALLLQRRGVTVDSVSEDNLTHHLVDGNFDSIPAIKTAEAVFIVSPNNPTGYTLSLQEFKTLVAYCKRTEKLLVVDNSFRFFNRQGYDDYQVLLESGVNFIAFEDTGKTWPTQDLKASLIIYSDTVKVFFESLYNEIYLCVSNFVLHLFSHLFDATSAVGLKSVLWDVVDSNRALLRETLQGSVLRISETSKEGLK
MGSDKIHHHHHHMNVHVAVQTQAHRLDSNTAAFARDVLDGLTKPQKELSPKYFYDDTGSELFVEITRLPEYYPTRTELGILRDRAAEIAALIPPDAAIVEFGAGATTKIRLLLAAHQVAAYVPVDISGDFIITQAEALQRDFPQLAVHPLAADFTKPFALPPAVRDLPKVGFFPGSTIGNFEPQEARRFLESARDILGRGARMIIGVDLEKDENVLVPAYDDAAGVTGKFNLNLLIRINRELGADFDLSAFAHRAIYNRDQHRIEMHLVSLRDQSVHLFGERIGFRAGESIHTENSYKYSLERFRALAQQAGWTPARCWTDADAMFSVHAIETNGSRV
MGSDKIHHHHHHMNYEDFKEVIHGRRSVRKFTEQEVATSDIKDIIDCARYAPSDTNSQTWEFLVIMNREKIKEIEQMTWDALHKLAAKAAKNGEEKAGKLLTRSFGPYATAFSEAPVLIVCLATPYESKFREKIFDPIAFVPDSVWEEEGIKSSCLAAQNLMLAAHAKGLGTCPMTGPVLLAQDELRQYLQIEPEKQINMVISLGFPKDKPKKLPRKEVDEITTFVF
MGSDKIHHHHHHMNYRERIAQSITPLQGNLFRVVESQEDIATARIVDSMQEQNRLEELLESNKPPVPGTARKRHYLLTTPFRYPPLKYGSRFGRSFEPSLFYGAMSIPTALAETAFYRFVFMSHLKVPFKRPLTTLHTVFSARFRTERGVRLQSEHWQDLHHTLADPVSYRESQAVGTDMRSLQVGAFQFLSARALQAGLYALPYHPDNGVEGVNVALFNASVFRDAAPRSYQKLIAVTSPSQVSMSLSEPDGSKKVYEFSLDQFLVEGELPQPAP
